Reference: patent EP4752227A2

Biological target: CD3 (human) (UniProt P07766)
Assay: cell-based or functional assay

UniProt P07766, sequence (P07766 23-207): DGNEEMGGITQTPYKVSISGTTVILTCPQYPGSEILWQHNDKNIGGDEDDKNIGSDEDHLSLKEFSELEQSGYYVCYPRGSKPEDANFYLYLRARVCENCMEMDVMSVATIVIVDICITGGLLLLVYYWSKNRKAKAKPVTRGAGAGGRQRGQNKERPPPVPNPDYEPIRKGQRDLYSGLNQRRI

How did the Transduction efficiencies as measured by CD3+GFP+ cells at Day 6 turn out when soluble anti-CD3 antibody clone HIT3A was run?
Its Transduction efficiencies as measured by CD3+GFP+ cells at Day 6 is 4.31%.

With soluble anti-CD3 antibody clone OKT3 as the substance, how does the Transduction efficiencies as measured by CD3+GFP+ cells at Day 6 read?
Its Transduction efficiencies as measured by CD3+GFP+ cells at Day 6 is 3.27%.

soluble anti-CD3 antibody clone UCHT1 was tested. Which Transduction efficiencies as measured by CD3+GFP+ cells at Day 6 did it give?
Its Transduction efficiencies as measured by CD3+GFP+ cells at Day 6 is 0.52%.
